In the DeepSol protein solubility set:

Assay: soluble on expression in E. coli; label from the status in PepcDB or PDB records

**Q.** Which “soluble on expression in E. coli” value does the source give for “MGSDKIHHHHHHMMYIGLPQWQHPAWSRLGLNDLADYSRYFSCVEGNTTFYALPSREIVGRWRDMTHDNFRFCFKFPSTISHKAALQNCDSDVSLFYQCLEPIEHRIGQLWLQLPATFGPVLLPVLWRFLDALPQGFSYGVEVRHPLFFTKGDEERALNQGLQQRGINRVILKRHI” here?
**A.** not soluble

**Q.** With “MGSDKIHHHHHHMNAPAHDNGRLALMLNELRLPTIGRLWPEFAERSDKEGWPATRLLGALLEHELAERAKRRIERHRTESHLDPTKTLATFDFGMVPMVSKAHVTALATGESWLEKGATILLFGPPGAGKSHLGSAIGHALIDAGYRVLFTRTSELVQKLQAARQSLQLPSALAKLDRFDLIILDDLSYARKDQAETSVLFELIAERYERKSLLITANQPFSGWNDVFPDPGMTVAAIDRLVHHSTIFELNVESYRRRKASDKQSARRRQLPDDNYEGGATIMN” as the sequence, how does the “soluble on expression in E. coli” value read?
**A.** not soluble

**Q.** Which “soluble on expression in E. coli” value does the source give for “MGSDKIHHHHHHMNAPLSHSRPMMQPSEDKSLATVFPFAGRVLDETPMLLGEGPTFDPASGTAWWFNILERELHELHLASGRKTVHALPFMGSALAKISDSKQLIASDDGLFLRDTATGVLTLHAELESDLPGNRSNDGRMHPSGALWIGTMGRKAETGAGSIYHVAKGKVTKLFADISIPNSICFSPDGTTGYFVDTKVNRLMRVPLDARTGLPTGKAEVFIDSTGIKGGMDGSVCDAEGHIWNARWGEGAVDRYDTDGNHIARYEVPGKQTTCPAFIGPDASRLLVTSAREHLDDDAITANPQHGLTFELGIEVKGRFEPLYRL” here?
**A.** soluble

**Q.** Which “soluble on expression in E. coli” value does the source give for “MGSDKIHHHHHHMNCKELQLSPELTQALGEGDVFSRVMALGGEVFRDVPGRKTVRVQLAGQPYFIKQHFGVGWGEIFKNLLAFKVPIVSANTEKQAIEKLGEIGIATTPLAGFGSRGCSPASRQSFLITHDLGDILSLETLADQWMQSPPEPRFKRRLLMEVATLAARLHDSGLNHRDFYICHICLDLPRLRHGDIHLYLIDLHRVGIRETIRPQDRMKDIAALYFSAMNAGLVTRDYLRFLRRYRGKPIRQVMREERDFWQQVQARAIKLYIKLHKVEPGLHQIGGMIG” here?
**A.** not soluble

**Q.** With “MGSDKIHHHHHHMNDEVSKNISLSDFEPYFKEDYFREDYFYFDNAVNSPETSDRQAGVIWNLLSLGQGSSVLELGCGYGRITNRLAKKGAHVVGLDISPILLKEAETDAAERGVKVEYVLGDMRSLPWRDRFDAAFLWYTTFGYFDDADNERVLREAASSLRKGGRLLIDHPNRIDFLRHKSPVCYVTQRNNDVRIDMFSNDVLSDRSNLERLIVRDGCVRRTHLSFRQYGVSEYVRMLRSAGFETVEAYGQEGEAFTSDSSRLVVVACK” as the sequence, how does the “soluble on expression in E. coli” value read?
**A.** not soluble

**Q.** With “MGSDKIHHHHHHMNEILKNSPISRAKLSEITGLNKSTISSQVNTLLENKFIFEIGEGQSRGGRRPVMLVFNKNAGYSIGIDVGVDYINGILTDLEGNIVLEKSYNLPIPSSDEVKEILFTIIKYFVSHMPESPYGLIGIGICVPGLVDKQQKIIFMPNSKWEIKDLKAVIETEFNVPVFIENEANAGAYGEKVFGNTKNFSNIIYVSINVGIGIGIIINNELYKGINGFSGEMGHMAIDFNGPKCSCGNRGCWELYASEKALLNSFFKDGKAISCHEIIELAHKNDVEVLNALQNFGFYIGIGLTNILNTFDAEAVILRNHIIESNPIVLNAIKNAVSSRVYSQIEGTYELLPSSLGKNAPALGTTSIVIEHFLNK” as the sequence, how does the “soluble on expression in E. coli” value read?
**A.** not soluble

**Q.** Which “soluble on expression in E. coli” value does the source give for “MGSDKIHHHHHHMNEKELAGWFPQAKLSQEADAQSLALGDGRYLNLADADLTERERYLLSLLSHPQEQKPSSPWQSYLHGQSSLPQAVEAIQFIHVHLWSQKDAQLDAWQTMMTDLLPSQLAQVQLSSQDYLFIIEQSRWTDYQTILADTLSALEFDFGLRLTFLVGQVWSRQLADRWSQLYQAEAALFAHWRAHYHQSTVLSFSQLFLWGQGRAGLEFGMIKASMLQLIDQQDMQDIILALWTEGAVVTKTAQILYIHRNTLQYRLDKWQDLTGLQLKDLTDLSFCYQVLLDRLF” here?
**A.** not soluble

**Q.** For “MGSDKIHHHHHHMNELRNDLLRYLTISATDEEWGIVVTTVGYQFIPPGCAYPLSRHPEKYNFKPQTGRILNEYQLVYITKGSGYFSSQSCKSQKINAGTMILLFPGEWHSYYPDRETGWDEYWVGFRGIHIDKRVEKKFFTKEEPLHRIGLSATIVGLYEDILKFASEEKSGYQQMISSIVLHILGSVYYKEKNNSFTNTYVVDKINEARILMKENIEDPLSPEEIAARLGLGYSWFRRMFKEYTGVSPAQYQLQQKLLRAKELLTSTPLTISEIAYSLHFENAGQFSTFFKKKEGVTPSEFRDRTH”, which “soluble on expression in E. coli” value is on record?
**A.** not soluble

**Q.** For “MGSDKIHHHHHHMNEMWLHRADLAESAINERHASRLWMLPRTNLAVVAWPPTAKERLFYRWHYWWQAHYLDCLIDAASRRTTKARKQRIRDTIVGIRLRNLGRLTKNNYYDDKSWLALALDRERRLNKRAKREYLRVLEGNIAAGQDDIQGVLPWRVGEHFFNVPTNGPAAIMLARNGEVEQARKLVDWIFDNLINDKGLVMDGLRMSMRGPEIVDPVYPYCQGVVIGACIEIAEALPFEESVQYLAHARAVIHAVAKEMATPEGVINAATGDGDGGLFKGILMRYLADAAVRLPEDGPANIATKKIAKRLVMASAESVWEHRLEVDGLPVFATDWCDDARLPHNYGVGGSALSDIVRVVRIDERDLSVQLSGWMLLEAAARVSLVD”, which “soluble on expression in E. coli” value is on record?
**A.** not soluble

**Q.** With “MGSDKIHHHHHHMNFDEKPYLRSIALKHQGLAEAKVTLIDGEFHDESAVRVQDCYPFTIPALAGFDSLDFDADVTFFVGENGSGKSTLLEAIAVAMGLNAEGGNKNTHFATKVSHSNLGYYLKTIKSFKKPKDSYFLRAESFYNLASYMEEDGREAYLGSYGGTSLHQQSHGESFMATLLHKFRGQGLYLMDEPEAALSPSRQLAALSAIHQLVENKSQFIIATHSPILLAYPRAKIYQFSNQGIVQITYQETEHYQITKAFLNQPEKLLASLGVG” as the sequence, how does the “soluble on expression in E. coli” value read?
**A.** not soluble

**Q.** With “MGSDKIHHHHHHMNIDEAKQLANYFSDGSPGYILEFNNLEWDLYTKKIVGFGIQERFGGSKGNSFKEFLVSEDISDHLKFKLIYSLNETMKQIASIRQFENPSSYKSPKMNPLVTLLIEEAYHKKDSARLLNGTKFSKEVNLEYIQQLPTRISKDIQNKDFDSVLTKSNTMIDEVLKYIIENTKGKSIDNNTVRSKDLRNQAFERLNIKIDKDMDKRIKALVGALNTLSDKILEMRNSQGDAHAQGSRRIVINEEEAILTANSAMILCEYLFRKYEKRKRFSDAKES” as the sequence, how does the “soluble on expression in E. coli” value read?
**A.** not soluble

**Q.** For “MGSDKIHHHHHHMNIINFIKNYLSTPMSSLTFAPAHQLARMIRNREVSAVEVLNAYLAQIAKHNSKLNAICTLDEENAYLRARLADEALARGENWGALHGVPITIKDIFETAGLLTTAGYIPLKDYVPQQDATVVARLRTAGAVILGKTNMAELAGDYQSTNSLFPQVNNPWNLDYTAGGSSGGSAAAVAAGLSSLDLGNDIAGSVRQPAHFCGVYGLKPTDRRISTAGQIPEVPGMPVCLRQMMTVGCFARSLEDIRLCFSLIAGSDLRRPDVPPIPLDNPSGKSLQNLKIAWLDEWVEVPVASEIQVAMTAIAHTLTQAGVQIEPWLPKNFDLSKTLNLYGRMAAYINIYAQPVDRYNLHRSWQQIFRTATQGEKELRKLGDFSRLLPDLLNPRLKGYFEVLTERDCFTAQMDEALEPWDAWLTPVAATPAFTHRPAWSAIEIDGRPYPHAVANGAYTMPFNLSGHPAVVIPIGHTQDGLPIGMQVVGKRWREMELLAIAQELDKVINAFRSPFEII”, which “soluble on expression in E. coli” value is on record?
**A.** not soluble

**Q.** With “MGSDKIHHHHHHMNIRKYIWAYVVAMALICPGVKAQEQITIGVIQYDVRDIDKSFKALHEQGFGSCELNYSEKRFTKELAEQVKAASEKHRIRVTTLVGVPGSKSTWNFRQGPATIGLVPIDERFEKLDLYRKMIDFCVQAGIPAMHSHFGFIPEDPSSAQYKDFIEVMRGLATYAKERNVLIYFETGQETPITLIRAIRDIGTGNLFINCDLANLLMYGKSNSLDAVKLFGNLIKEFHAKDGKYPDPNNPYELGHEVPIPTGDVDFPAVIAELKKQGFKGAITIECELNGTRHDYVIQTRKYLQELLDR” as the sequence, how does the “soluble on expression in E. coli” value read?
**A.** not soluble

**Q.** With “MGSDKIHHHHHHMNIRTLAAYMVFQCVFLISWSQDLKRVQKTITTLTSKTYHGRGAASNGDGLAAAYLEKQYKETGLKPVDTNFLQPFTYAINTFPGKMKLKSNLGVFKPGIDYIVKSTSGPGKGTCDVYLVDTLIFTDDGKLKEFLQLDVTALVVVYPKKYFKEFTASTPDLLKQLYSAAAIIELQDKKLTMALADQSFGTPVFEVLTTSFSPDIKTISFEIENELIKKHQANNVIGMIEGRSKKDSFIVLTAHYDHLGTLGRKAYFPGANDNASGVSMLLEFAHYYMENPPEYSMLFIAFAGEESGLLGSSYFVAHPLVPLAGIHFLINLDLLGTGDDGIMVVNGSVFKPAYNRLIAINEEKKLLPAIKMRGEAANSDHYPFYKKGVPCFFIYTLGGVAAYHDVQDVAKTLPLTKYREVFQLIVLFNGEK” as the sequence, how does the “soluble on expression in E. coli” value read?
**A.** not soluble

**Q.** With “MGSDKIHHHHHHMNKETQAMMLVPQGSIEGYIHAAYDYPMLTAEEEKELAERLYYHQDLDAAKTLILSHLRFVIHVARGYSGYGLPQADLIQEGNIGLMKAVKRFNPEVGVRLVSFAVHWIKAEIHEYVLRNWRIVKVATTKAQRKLFFNLRKTKQRLGWFSDKEVDMVANELGVSKEDVLEMESRMTGSDVGFDLPVDDDESYAPALYLEDKSSNFAAELENENFETQAADQVANALAELDERSQDIIKSRWLDDEKATLHDLAAKYNISAERVRQLETNALKKLKSAVSF” as the sequence, how does the “soluble on expression in E. coli” value read?
**A.** not soluble

**Q.** Which “soluble on expression in E. coli” value does the source give for “MGSDKIHHHHHHMNLLDHLRRMAGNNLWSNDRLYRAVLALKPGEFEAERTSFFPSIKATLNHVLAVDYLYLDFLEEGGVGAAAHDDFVPFDEPQPLFAAQMAADRRLIAFCDGLSEADLDRRVITDRRADGMIPERIGDILAHVFLHDIHHRGQVHAMLSGTSVVPPQLDEFLLDYDAKLRKAEVERLGL” here?
**A.** not soluble

**Q.** Which “soluble on expression in E. coli” value does the source give for “MGSDKIHHHHHHMNLRRDALQILKETSRTFYIPISLLPPGLQEAVASAYLCMRAIDEIEDHPEIDNATKAKLLRSISLTLQAGVDGFAVEAFFTGFNGYENTLEEVTLRIREWLLLAPETIAPRIWDATAAMSDRMAYWSERNWKIYTESDLDRYTFGVAGAVGLLLSDLWTWYDGTQTNRTQAIGFGRGLQAVNILRNHTEDLRRGVDFFPEGWSAENMQEYARRNLALAEAYTKGLPTGPALDFCQIPLTLANGTLDALANGKEKLSRSDVFALIEQIISVNMKAS” here?
**A.** not soluble

**Q.** With “MGSDKIHHHHHHMNNKERLLYVQEILQKETDEENELTLEQIMTKLHAVKGTEVNKKTLRDDLNALKDSGLFPISVNQEKNGVEKTYQHRTKLFTIQELRLLADALTTASFISKEETEQMINKLKKLTSHRLADHLDNRLLVPPDRGNREVQELIKTVHLLHDVIKHGEVIRYQYGQYNLTKEFTLRENGRFYTLKSYALIWDDQRYYLIGEDEDEDLIRYERVDQMYHVERTGAFFTWPEKFDLMEWLRTHSSVMTEQKEDLQLECHLDSLQDVLDCFGLDVTIQSLTDERFLLATKAVIDKGLMDWLFSLGGKVKVIHPPKLAEEIQREATAIIDQYRLANS” as the sequence, how does the “soluble on expression in E. coli” value read?
**A.** not soluble

**Q.** Which “soluble on expression in E. coli” value does the source give for “MGSDKIHHHHHHMNQRMKSHFQYSTLENIPKAFDILKDPPKKLYCVGDTKLLDTPLKVAIIGTRRPTPYSKQHTITLARELAKNGAVIVSGGALGVDIIAQENALPKTIMLSPCSLDFIYPTNNHKVIQEIAQNGLILSEYEKDFMPIKGSFLARNRLVIALSDVVIIPQADLKSGSMSSARLAQKYQKPLFVLPQRLNESDGTNELLEKGQAQGIFNIQNFINTLLKDYHLKEMPEMEDEFLEYCAKNPSYEEAYLKFGDKLLEYELLGKIKRINHIVVLA” here?
**A.** not soluble
